In paper PMC7006624:

Assays:
Assay in all cases: fluorescence polarization
[1] = target: CLIP-G (CLIP-tag-GCN4 bZIP fusion) (UniProt P03069); details: no added NaCl; amino-C6-T (second T of TTTT loop); 40 mM Tris-HCl, 20 mM acetic acid, 12.5 mM MgCl2, 1 mM DTT, 1 uM ZnCl2, 100 nM calf thymus DNA, 0.02% Tween 20, pH 8.0, 25 C, with or without 200 mM NaCl
[2] = tested on: AZ-CLIP (AZP4-CLIP-tag fusion) (designed); details: no added NaCl; amino-C6-T (second T of TTTT loop); 40 mM Tris-HCl, 20 mM acetic acid, 12.5 mM MgCl2, 1 mM DTT, 1 uM ZnCl2, 100 nM calf thymus DNA, 0.02% Tween 20, pH 8.0, 25 C, with or without 200 mM NaCl
[3] = target: ZF-CLIP (zif268-CLIP-tag fusion) (UniProt P08046); details: amino-C6-T (second T of TTTT loop), 40 mM Tris-HCl, 20 mM acetic acid, 12.5 mM MgCl2, 1 mM DTT, 1 uM ZnCl2, 100 nM calf thymus DNA, 0.02% Tween 20, pH 8.0, 25 C, with or without 200 mM NaCl
Sequence of ZF-CLIP (zif268-CLIP-tag fusion) (P08046 other isoform, or with tags, fused parts or gaps): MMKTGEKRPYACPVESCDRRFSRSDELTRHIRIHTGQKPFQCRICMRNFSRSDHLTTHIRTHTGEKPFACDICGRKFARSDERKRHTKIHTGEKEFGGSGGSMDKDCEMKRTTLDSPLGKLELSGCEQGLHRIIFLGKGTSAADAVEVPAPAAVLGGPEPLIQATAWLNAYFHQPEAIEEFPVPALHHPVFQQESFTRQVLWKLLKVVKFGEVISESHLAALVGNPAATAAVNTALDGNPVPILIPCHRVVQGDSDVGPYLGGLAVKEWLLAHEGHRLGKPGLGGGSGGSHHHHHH

Sequence	Kd [1] [nM]	Kd [2] [nM]	Kd ([3]; no added NaCl) [nM]	Kd [3] [nM]
CGCGATGCCACGTAGCGTTTTCGCTACGTGGCATCGC [A488-ODN-AZ]	> 1000	74	> 1000	–
CGTTCATGACTCATGAGTTTTCTCATGAGTCATGAAC [A488-ODN-AP]	5.1	–	> 1000	–
CGCGACGCCCACGCGCGTTTTCGCGCGTGGGCGTCGC [A488-ODN-ZF]	> 1000	> 1000	8.1	56
